In a protein production outcome set (Wang et al. 2014):

assay: label from the status in PepcDB records

| Sequence | protein production |
| --- | --- |
| MALTSGQVGNLLNAFDSHGGHFQTQMAFRLMWLTLTRANESVQARWDEFDLANGLWKIPKERMKARREHLLPLPRQAVSILTTMQPITGQSTYVFPNRDDRHKPMSDAAFRQALKKLGWATIYSPHGTRTTGSTRLNEMGLEHHHHHH | failed |
| MAMALFQSAPHSLCILRLSAIGDVCNTIAAVQAIQRQWPQTRITWVTGKLEAELIQSLPDIQVIVFDKKLGWRAYTQLWQQLKSERFDALLHMQYAFRASIATLGIKARYKLGFDAARSQDFQTWFTNVKVPSPDKMHVLDGLLAFVEHLGIRDIEPKWSLTCQPDDLTWAEAQFQPEQPRLVVVPGASKAYKNWTAEGYAAVIEHAQQQGWQVILAGSPAQVERDLAAQVEQALAHPVLNLVGKSTLQQMLALLAKADLVIAPDTGPAHMANAMHTPIIGLYAHHNPERTGPYHYRHYVVSAYQEALLAETGKMPQQVDWRTRVKDPNAMQRITAQQVIAMFERAAADIMATQVND | failed |
| MAMNEIALFKGVRIQPYQKYIDFMFASVLAFIFLVYRIYILFIDYKSVNKKLDILTLFAYFKPHLLYLLIGTAIIFVICKLIAQFLIRFKTKDLAEMIETQGFHNRTVIKKTTEYIPIDYKQTEYDYYPTMFYKRGKKSFVIHIKKDGSRFQDNYLELETIIEPMFNSELVEKKHIGRYLRYEFMPLKYKKRIVMNGEQESNTIFYDTKIAITHQITWDFVKAPHGLVTGITGGGKTYFLFYVIRELFRRHSEVRLLDPKVSDLSFMKRVIGDDKVADTKGQILKQLREANNEMEERFRLMNDSSDYKIGNDFRNFDMRPYFIIFDEVTAFTSTLDKKELQEMNDYLINIIMKGRQAGVFMFLTAQRPDADVIKGNVRDQLGLRVSLGNLSNDGYRMTFGQTDKEFQTIHDSDIGRGYISILGQYNEPILFDAPLMEQYDFVEDVKQILNKE | failed |
| MAMVASVSMAFVLVFCTILLFHFVQQSRFTTATQLESIARSVREPLSAAILKADIPEAEAILSRIQPAGIVSRADVVLPNQFQALRMRFIPERPVPVTVTRLFELPVQISLPIYSLERPANPQPLAYLVLQADSYRMYKFVMSALATLVTAYLLLVLMLTVALTWCINRLMVRPLRRIARELNDLSQQERLGHQLTLPRLHHDDEIGMLVRSYNRNQQSLVRQHDELSIQSTRFPVSELPNKAFLLAMLEQTVARPQSAALIVVACETLQDAAGVLKESQREMLLLTLVEKLRAAIPPQMVLAQVSGYDFAILADGLAEPWQAVTLSKQVLTIINERLPLHGLQLRPYASVGIAMFHAGLSAEQFYRRAVSAAVTARRKGKNQIEFFDPEQMEKAQRRLMEEHDIMTALDNQQFAIWLQPQVACASGEICGAEVLLRQRQADGSWSLPPSLIERIESCGLIIPVGYWVMEEACRQLAAWQSQGIMLPLSVNVSLLQLLEHDRGEEMLKLIARYRIAPGTLILEVTESCRMDDPQDVMARLRPLREAGVQIALDDFGMGYAGLHQLQQMKALPVDILKIDKVFIDMLPEDVSMVPAMIQLARGLSLRIVAEGVENDAQRRWLQAAGVEVLQGHLFGCALPQEAFSARYLSPAREDVNL | failed |
| MAMVFCRGCAKEIHETALNCPQCGASQFPATPVKQLQENGSPWMAITSLVLGILCSLALFDDGEWDLETIVGLGMCSVAGLALGIVSINKKMPGYGIAIAGTVLSAVSLLVFFGLIVN | failed |
| MAMVVGVAMGNIALGAETVGQINEAYKTKPMLKKPLDECSMRYKTIVDVDVHTAIISIKGNPKFAEGAVVDAGVEASICEGGFTKGQSPLTSLTQRMEKICDVTRAIIRMLL | failed |
| MANKNFSLTVYDSEYMETNNKIYQENMEKKIRTISEFPDKVLLKILSLLPSKDVVATGVLSKRWRSLWKDVKTFRTSSVESLQLKINPSATNKDIQSLVNMAVARSMRELRIEMICKNFELPKSFYMFSQLETVILDKVSLMDPPPDVHLPCLKRLHLLSVNSLTNVMIFTIDVPTLRILSIDNTSGKSRPKGVHGFVINTPSLSVNVVFDNPYKFLAPLGSTQYLSLCSVTSHTTYRPAVFSFIFLDHLELCLCSAEQWNLLTRILNYAPRLRVLQLKLYHKHCVKDTKNLMGNQPDLIPKSLSSHLEILEWRQYNDTAQEREAAKYILANASGLRKATFYTESTEKHGMLKEVRMCGQRFKNMSACVK | failed |
| MANKNMRNTTTKVEALIESCRSEGKWHRVIELTDELKTGSPHNECLANFLVGEARLESYLEENALASDSNFGRAKSGLAEARRFLHLALGESGQKAGIALDAYLLLAKLCFACGEYEQSLDNFVKAELNTLAEKELTLRSLKILAESYAIKGLCLEQQTTKPSSKFKKAEKDTEMISCFERASDLGLLYLQEYDLVSGSSGSSNNSTAGSTLNVNASTVQPSSSSFAISSTIPASGPSGLEMNRRMGAILETALQRAPIVLIKTEKLQEAVERYRIMLNAIETRATQSLRLTLARQLAEVLLRGVSGTIYSPPFTGKSGGGTLRGGSSKKLWKPRKYAARQQFNPRNQQEEVILLLLIAEALAVRDTVLSQSPEFRQARQHAMGNVTAVYDLLTLATVRWGLVQLLNESFEKALKFSFGEQHVWRQYGLSLMAAEKHSHALRVLQESMKLTPSDPLPCLLASRLCYESLETVKQGLDYAQQALKREVKGLRPSRSQLFVGIGHQQLAIQSNLKSERDACHKLALDALERAVQFDGNDHLAEYYLSLQYALLGQLAEALVHIRFALALRMEHAPCLHLFALLLTSSRRPREALGVVEDALHEFPDNLQLLHVKAHLQLHLEDAETALGTVQHMLAVWRDVYEAQLAGEEEKHSDTKSGVHLAHSSQMSDKDSNSVYAASLAAVSRVEQALSEAASSLSSFTQRPGPRRPWMLQIEIWLLLADVYLRIDQPNEALNCIHEASQIYPLSHQIMFMRGQVHVYLEQWFDAKQCFLNAVAANPNHTEALRALGEAHLVLGEPRLAEKMLKDAAKLDPSCPKIWFALGKVMEILGDFHASADCFATSLQLEPSCPVLPFTSIPLVFE | failed |
| MANKTKSKSLLEKMWRIKWWLLSIFTVLFLLFALFFPLNNYYVELPGGAFDTKEVLTVNKKADDSKGSYNFVAVAQTKATLALMLYTQFNDFAKLQTAEEATGNYSDEDFMRINQFYMETSQNQAVYQGLTLAGKEVSLEYMGVYVLQVADDSSFKGVLNIADTVTAVNGKTFDNSTDMIKYVQGLKLGSKVKVTYMRDGKEKTATGKIIKIANGKNGIGIGLTDHTEIKSPENVKFKLDGVGGPSAGLMFTLAIYDQVSGQDLKAGRKIAGTGTIEKDGAVGDIGGAYLKVKSAADSGADIFFVPNNLVTKEMKKADPDAKTNYQEAKEAAEKLGTKMKIVPVKTAQEAIDYLKKTK | failed |
| MANLKSLPVGDKAPEVVHMVIEVPRGSGNKYEYDPDLGAIKLDRVLPGAQFYPGDYGFIPSTLAEDGDPLDGLVLSTYPLLPGVVVEVRVVGLLLMEDEKGGDAKVIGVVAEDQRLDHIQDIGDVPEGVKQEIQHFFETYKALEAKKGKWVKVTGWRDRKAALEEVRACIARYKG | not failed |
| MANLLSTCTSESGNIQHISPQNAGWEYVGFDVWQLKAGESITLPSDERERCLVLVAGLASVKAADSFFYRIGQRMSPFERIPAYSVYLPHHTEAKVTAETDLELAVCSAPGFGELPVRLISPQEVGVEHRGKGRNQRLVHNILPDSQLADSLLVVEVYTNAGATSSWPAHKHDTAVEGQETYLEETYYHRFNPPQGFCLQRVYTDDRSLDECMAVYNRDVVKVPKGYHPVATIAGYDNYYLNVMAGPLRKWRFTWEENHAWINSPDYPR | not failed |
| MANRSHHNAGHRAMNALRKSGQKHSSESQLGSSEIGTTRHVYDVCDCLDTLAKLPDDSVQLIICDPPYNIMLADWDDHMDYIGWAKRWLAEAERVLSPTGSIAIFGGLQYQGEAGSGDLISIISHMRQNSKMLLANLIIWNYPNGMSAQRFFANRHEEIAWFAKTKKYFFDLDAVREPYDEETKAAYMKDKRLNPESVEKGRNPTNVWRMSRLNGNSLERVGHPTQKPAAVIERLVRALSHPGSTVLDFFAGSGVTARVAIQEGRNSICTDAAPVFKEYYQKQLTFLQDDGLIDKARSYEIVEGAANFGAALQRGDVAS | not failed |
| MANTATDQRADTLMLVHVPADRKKTYAISLMRDLWIDIPGVGESKINAALAYGGVPLMVQTVESLLQQRIDHVAMIDFQGFKGLTDALGGVEVDVRIPFAPSSGPKAGQVYDAGKQTLNGDEALAFVRERKAFSDGDYQRVRNQQAYLKAIIGKVIARETLTNPVTISNMVSAVSPFVSVDKDFDAAAIGSLALSMKDVRAQDTVMFTLPTLGTGTSPDGQSIVLADTTAIADVTAALAKDQVDAYITAHALDKGFLEHHHHHH | not failed |
| MANTYGGVIFLGIEEKPKGRFSVTGIAVPERVLKALWDGLNNRQRISINLLTDKMVEVIEIQGKQVIRIQVPRARRAQRPVYVGQNPLTGTYRRNYEGDYLCDEETIKRMLAEQVEEVRDARLLENYGFDDIEPNTLKAYRNQYDLTKALSALVRDGFLESGGIARGTFYFFPGEPPNAEADLVAQNYKFVEKSSPEDLLLGIIPKEIFDDLKPSSDDLKPSSDDLEPSSDDLEPSSDDWQSLMAIAVTIRNKGKVSTDIMEATILRLCQGRFLNHKQLQELLDRSYNTLRLGYLSKMHKKGQLELRYPDKLTHPNQGYRTKNSSSSDF | failed |
| MAPLNYKTITSRSILSKVLVRATQQWPTDKTLNKQLSELYGAYVNSFVSKFKDKHVITISLEVVNEKFLKDKTPLFEKGLDTLKEIIWNPLIKDRCFDHTYVAQEKSLLSKKLEAMEDNKAQYSFLQLMNYMFKQEPYRYIATGQLEQIPQVTSESLYDTYLSMVQNDDCAIYVVGNINKEEVTQLILDKFAIKPFYLENKESTEITPSFDQPQYIIEKDDVDQAKLNLGYRFPSYYGKSNYYAFIVLNMMFGGDPSSVLFNEVREKQSLAYSIHSQIDGKNGFLFVLSGVSAEKYEQAKDTVIKEFDKIKNGDFDSNKIELAKKIIISHRHEASDRPKSIIEILHNQLLLNRQQTDQDFINAVNQVTKKDVIKLANEAVLDTIYVLTKGDQH | failed |
| MAPLPLAVIVYEPGDVLEEILAAARDRLVGLPDVRIAGLVPRLGPRHSNGRASFWLDDIVRGDSIALSQDLGPGSTSCILNADGLATARMRLAEAIAVRPDLVLFGRFAKEEIAGRGIREEIGLALAQDVPALVAVERAMLPGWIAFAAEGWTMLPADADAVVAWFVALAAERQSADTLEHHHHHH | failed |
| MAPPSDSDPREPSPPLFQGRGLTKRFGSFVANQAIDLDIAGGEVHALLGENGAGKSTLVKLITGLLQPDDGRMIWRGTPISFAGPAEARACGIAAVSQHFALFDNLTVVENVALGLDRRISVGRLATELEQISQRYGLPLDPKREVWRLSVGERQRIEIVRALLQNPQLLILDEPTAVLTPAEADRLFDVLQRLRADGRALLYISHKLDEVKRLASVATILRAGRVVGSCDPRQESAASMARMMVGSDVTAPKQSSHSIGGPLLSVSGLTQRPDDPHGVTLRDIALEVRSGEIVGIAGVAGNGQDELFAALSGETPIAQSDVIHIAGEAAGSLSINQRRRLGAAFVPEQRLGHATVPTMSLSDNALLTGHATGALVKFGLVNRGAALALVDRVSEAFDVRKASRDPEAARLSGGNLQKFIVGREILRQPRLLIVDQPSWGLDAGAASAIRQALLDLAASGAAVLVISQDLDELIEIADRIAVMFHGRLSPPRPVSEIGRDQLGLLMGGSGWPAEVRDVAGALEHHHHHH | failed |
| MAPQPFDIDTPSLRVFLPAPELATGRAIVACPGGGYGGLAVNHEGYDWAPYFNKQGIALIVLKYRMPHGDRTLPISDAEAAMKMARDSADVWNLNPYDIGIMGSSAGGHLASTIATHTRPELRPNFQILFYPVITMDKSYTHIGSHDNLLGKDAFAELETEFSNEKQVTKETPRAFIAYSDDDKTVPPANGVNYYLGLHKNHVPAVLHIYASGGHGWGIRENFIYLEHHHHHH | failed |
| MAQENPLWMRHCAISPDGTTIAFTYKGDIFTVPVSGGKATQITTNPAFDTTPIWSPDSKQIAFASDRMGSMDVFIVSKDGGEPRRLTTFSGGETPVAFTDAGHILFTADIMPSTEDAGFPSNGQFQQIYQIPVSGGRPVMFSSMPMECISINKEGTILYQDKKGYEDYWRKHQKSPIARDIWMLRPGQTPRYEKQTTFIGEDREPVWAPDGKSFYYLSEENGTFNVYQRTPGSDTSKQVTHHKQHPVRFLEHHHHHH | failed |
